B1: PL2#4 IgG2 (antibody, V domains shown)
VH: EVQLVQSGGGLVKPGGSLRLSCAASGFTFSSYTMNWVRQAPGKGLEWVSSISSGSDYLYYADSVKGRFTISRDNAKNSLYLQMNSLRAEDTAVYYCARNELRWYPLAGAFDIWGQGTMVTVSS
VL: QSVVTQPPSMSAAPGQRVTISCSGVSSYIESSYVSWYQQLPGTAPRLLIYDDDMRPSGIPDRFSGSKSGTSATLAITGLQTGDEADYYCKIWDSGLGGVFGGGTKLTVL
notes: Human IgG2 backbone
B2: PL2#5 IgG2 (antibody, V domains shown)
VH: B1 VH with L106F
VL: B1 VL with V25S, K90E, G95R
notes: Human IgG2 backbone
B3: PL2#39 IgG2 (antibody, V domains shown)
VH: B1 VH with L106K
VL: B1 VL with V25S, E30T
notes: Human IgG2 backbone
B4: PL2#3 IgG2 (antibody, V domains shown)
VH: B1 VH with L106Q, I112R
VL: B1 VL with V25S, S35G, K90E, D93R
notes: Human IgG2 backbone
B5: PL12 (full-length, N297A mutant human IgG1) (antibody, V domains shown)
VH: QVQLVQSGAEVKKPGSSVKVSCKASGGTFSSYAISWVRQAPGQGLEWMGRIIPILGIANYAQKFQGRVTITADKSTSTAYMELSSLRSEDTAVYYCARGIGSYSFGAFDIWGQGTMVTVSS
VL: QSVLTQPPSVSGAPGQRVTISCTRSSSNIGAGHDVHWYQQLPGTAPKLLIYGNSNRPSGVPDRFSGSKSGTSASLAITGLQAEDGADYYCQSYDSSLTGVVFGGGTKLTVLG
B6: PL1 (full-length, N297A mutant human IgG1) (antibody, V domains shown)
VH: QIQLVQSGAEVKKPGSSVKVSCKASGGTFSSYAISWVRQAPGQGLEWMGRIIPILGIANYAQKFQGRVTITAGESTSTAYMELSSLRSEDTAVYYCAREGSSGWLGVLDYWGQGTLVTVSS
VL: B5 VL with S2A, P8S, R24G, I29V, H33Y, G85E, T98S, V100W
B7: PL3 (full-length, N297A mutant human IgG1) (antibody, V domains shown)
VH: B5 VH with A33T, G99S, I100R, G101D, S102G, M116L
VL: QSVVTQPPPVSGAPGQRVTISCTGSSSNIGAGYDVHWYQQLPGTAPKLLIYGNSNRPSGVPDRFSGSKSGTSASLAITGLQAEDEADYYCQSYDSSLSAPVVFGGGTKLTVLG
B8: anti-PD-L1 ref-2 (IgG2) (antibody, V domains shown)
VH: EVQLVESGGGLVKPGGSLRLSCAASGFTFSSYGMSWVRQAPGKGLEWVATINSGGSNTYYPDSLKGRFTISRDNAKNSLYLQMNSLRAEDTAVYYCARHDGGAMDYWGQGTTVTVSS
VL: DIQMTQSPSSLSASVGDRVTITCRASESIYSYLAWYQQKPGKAPKLLVYNTKTLPEGVPSRFSGSGSGTDFTLTISSLQPEDFATYYCQHHYGTPPWTFGQGTRLEIK
B9: PL2 (full-length, N297A mutant human IgG1) (antibody, V domains shown)
VH: B1 VH with L106Q
VL: QSVVTQPPSMSAAPGQNVTISCSGSSSYIESSYVSWYQQLPGTAPRLLIYDDDMRPSGIPDRFSGSKSGTSATLAITGLQTGDEADYYCEIWDSGLGGVFGGGTKLTVLS
B10: PL2 IgG1 (antibody, V domains shown)
VH: B1 VH with L106Q
VL: B1 VL with R17N, V25S, K90E
B11: PL2#3 IgG4 (antibody, V domains shown)
VH: B1 VH with L106Q, I112R
VL: B1 VL with V25S, S35G, K90E, D93R
notes: Human IgG4
B12: PL2#3 IgG1 (antibody, V domains shown)
VH: B1 VH with L106Q, I112R
VL: B1 VL with V25S, S35G, K90E, D93R
notes: Human IgG1

The results in this text go back to patent publication US20190225691A1 (SHANGHAI HENLIUS BIOTECH, published 2019).

Substitutions are numbered along the chain they refer to. Names may count otherwise.

As usually defined, the EC50 (read off the curve) is the concentration that produces a half-maximal response. Broadly, the Kd is the constant that tells how readily two partners part at equilibrium. A lower Kd goes with tighter binding. For orientation: koff means the first-order rate constant of dissociation. Lower therefore signals slow dissociation. Broadly, the kon is a measure of how fast the partners come together. Low readings indicate slow association, high ones fast association.

The target of one assay is T1, human PD-L1 ECD-His (human, UniProt Q9NZQ7 19-238).
T1 construct: extracellular domain; Analyte in all SPR and BLI runs; also called hPD-L1_ECD-His; hPD-L1 ECD-His; not shown: His tag
T1 sequence (Q9NZQ7 19-238): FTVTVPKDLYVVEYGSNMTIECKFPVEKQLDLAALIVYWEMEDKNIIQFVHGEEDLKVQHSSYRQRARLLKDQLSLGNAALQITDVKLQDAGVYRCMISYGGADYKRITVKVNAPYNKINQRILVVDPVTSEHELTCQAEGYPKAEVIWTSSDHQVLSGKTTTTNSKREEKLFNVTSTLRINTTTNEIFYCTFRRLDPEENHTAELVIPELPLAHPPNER
Kind of assay: SPR, ratio of KD to ref-1. How it is done:
(§1) The binding affinity and kinetics were measured using surface plasmon resonance (SPR). […] Experiments were carried out at 25° C., and measurements were made with serial dilutions of hPD-L1-His from 19.1 nM to 0.71 nM passing over the captured antibodies in HBS-P+buffer supplemented with 0.1% (w/v) BSA with a flow rate of 25 μL/min. All data were analyzed with the evaluation software and curves were fit with a 1:1 Langmuir binding model. All the data are representative of two independent studies performed in duplicate.
(In general: SPR reads the build-up and loss of mass on a sensor chip optically.)
Consider B1, for which the “Improvement over ref-1” value amounted to 6.62 fold.
As for B2, the “Improvement over ref-1” value came out at 2.74 fold.
Turning to B3, the “Improvement over ref-1” value was determined as 10.8 fold.
Regarding B4, the “Improvement over ref-1” value is 16.3 fold.

Another assay deals with T2, human PD-L1 on cells (PHA-activated human T cells); PD-L1-transfected CHO-S cells; A375 melanoma cells; … (human, UniProt Q9NZQ7 19-290).
T2 construct: whole, on cells; also called PD-L1 expressing T cells; PD-L1 expressing CHO-S cells
T2 sequence (Q9NZQ7 19-290): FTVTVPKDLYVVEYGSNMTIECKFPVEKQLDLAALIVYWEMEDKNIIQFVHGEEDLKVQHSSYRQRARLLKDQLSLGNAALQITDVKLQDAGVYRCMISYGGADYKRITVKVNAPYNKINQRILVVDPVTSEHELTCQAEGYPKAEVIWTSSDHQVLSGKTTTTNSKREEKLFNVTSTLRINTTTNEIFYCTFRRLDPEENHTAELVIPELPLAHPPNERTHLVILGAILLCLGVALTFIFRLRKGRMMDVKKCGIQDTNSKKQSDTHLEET
Kind of assay: flow cytometry blocking assay: PD-L1 expressing CHO-S cells incubated with antibody, then biotin-labeled PD-1-Fc and streptavidin-PE; MFI of bound PD-1. How it is done: PD-L1 expressing CHO-S cells were suspended in FACS buffer (PBS with 4% FBS). Various concentrations of tested antibodies were added to the cell suspension (3.5E5 cells/well) and incubated at 4° C. for 30 minutes. […] The cells were washed and then stained with streptavidin-PE at 4° C. for 30 minutes. Flow cytometric analyses were performed using the Cytomics FC 500 (Beckman Coulter Inc.).
Anti-PD-L1 reference antibody and Avastin were used as the positive and negative control, respectively.
(Flow cytometry measures light scatter and fluorescence of single cells or particles in a stream.)
As to B5, the “IC50 (read off the curve)” value is approximately 0.2 µg/mL.
Take B6: the “IC50 (read off the curve)” value was approximately 0.02 µg/mL.
Same read-out and setting: under B7 stands approximately 0.1 µg/mL.
Still for that read-out and setting: with B8 the figure was approximately 0.2 µg/mL; with B9, approximately 0.05 µg/mL.

The target in the next assay is T2, human PD-L1 on cells (PHA-activated …). Kind of assay: flow cytometry on PHA-activated human T cells, biotin-labeled anti-human IgG Fcγ and streptavidin-PE, MFI.
B8: the “EC50 (read off the curve)” value is approximately 0.004 µg/mL.

The next assay has the same target. The assay is described as follows: flow cytometry on A375 human melanoma cells, biotin-labeled anti-human IgG Fcγ and streptavidin-PE, MFI.
On to B8, for which the “EC50 (read off the curve)” value is approximately 0.002 µg/mL.

The target in another assay is T3, recombinant human PD-L1/Fc fusion protein (human, UniProt Q9NZQ7 19-238).
T3 construct: also called hPD-L1 ECD-Fc; not shown: Fc part
T3 sequence (Q9NZQ7 19-238 limits assumed): as the sequence (Q9NZQ7 19-238) above
Kind of assay: ELISA: human PD-L1/Fc coated (15 ng/well), serially diluted antibody, HRP-conjugated secondary antibody, TMB, A450. How it is done:
ELISA assays were performed to assess the binding of selected antibodies to recombinant human PD-L1/Fc fusion proteins. Fifteen nanograms per well of human PD-L1/Fc proteins were coated on 96-well EIA microplate overnight at 4° C. After blocking with 5% skim milk, serially diluted antibodies were added and incubated at RT for 1 hour. The unbound antibodies were removed and wells were washed with PBST twice. The HRP-conjugated secondary antibody was added to the wells, and, following an incubation, excess secondary antibody was washed away. TMB was added to the wells, and following incubation, the reaction was stopped, and HRP activity was measured by monitoring the increase in absorbance at 450 nm.
B5: the “EC50 (read off the curve)” value is approximately 0.03 µg/mL.
As for B6, the “EC50 (read off the curve)” value was approximately 0.004 µg/mL.
Consider B7, for which the “EC50 (read off the curve)” value is approximately 0.02 µg/mL.
In the case of B9, the “EC50 (read off the curve)” value was approximately 0.009 µg/mL.

The next assay addresses T2, human PD-L1 on cells (PHA-activated …). The assay is described as follows: flow cytometry on NCI-H292 human NSCLC cells, biotin-labeled anti-human IgG Fcγ and streptavidin-PE, MFI.
Take B8: the “EC50 (read off the curve)” value is approximately 0.01 µg/mL.

The target of another assay is T1, human PD-L1 ECD-His. Kind of assay: SPR, 25 C, antibody captured by anti-human IgG Fc, hPD-L1-His analyte, 1:1 fit. How it is done: as §1
In turn, B1 came in with a Kd of 1.27 nM, a koff of 0.00099 s⁻¹ and a kon of 882000 M⁻¹ s⁻¹.
The matching figures for B2: 3.07 nM, 0.00221 s⁻¹ and 812000 M⁻¹ s⁻¹.
With B3, the Kd came to 0.779 nM, the koff is 0.00143 s⁻¹ and the kon was determined as 2.04e+06 M⁻¹ s⁻¹.
For B4, binding was characterised by a dissociation constant (Kd) of 0.516 nM, the koff was 0.000557 s⁻¹ and the kon was found to be 1.32e+06 M⁻¹ s⁻¹.

A further assay has as its target T2, human PD-L1 on cells (PHA-activated …). Kind of assay: flow cytometry on PHA-activated human CD3+ T cells, FITC-labeled anti-human IgG Fcγ, MFI. How it is done: Human T cells were isolated from PBMC using MagniSortTM Human T Cell Enrichment Kit (eBioscience). Isolated T cells were activated by 5 μg/mL phytohemagglutinin (PHA) for 3 days to stimulate the PD-L1 expression. Activated T cells were collected and incubated in FACS buffer (PBS with 2% FBS) with human Fc blocker (eBioscience) for 20 minutes at 4° C. Binding of anti-PD-L1 monoclonal antibody was assessed by incubating the activated T cells with the serial-diluted antibodies in FACS buffer. The cells were washed with flow buffer and the binding was detected with a FITC-labeled rabbit anti-human IgG FcγAb. Cells were also stained with mouse anti-human CD3 PE-Cy7 (eBioscience) for gating CD3-positive T cells. Flow cytometric analyses were performed using the Cytomics FC 500 (Beckman Coulter Inc.).
Turning to B5, the “EC50 (read off the curve)” value was approximately 0.03 µg/mL.
B7: the “EC50 (read off the curve)” value is approximately 0.04 µg/mL.
Turning to B8, the “EC50 (read off the curve)” value was approximately 0.005 µg/mL.
Regarding B9, the “EC50 (read off the curve)” value is approximately 0.005 µg/mL.

The target in another assay is T1, human PD-L1 ECD-His. The assay is described as follows: SPR, ratio of KD to ref-1. This is another data set of the same source.
Consider B10, for which the “Improvement over ref-1” value amounted to 0.41 fold.
In the case of B11, the “Improvement over ref-1” value came out at 2.64 fold.
Still for that read-out and setting: under B12 stands 2.53 fold.
Take B4: the “Improvement over ref-1” value came to 5.36 fold.

The next assay has as its target T1, human PD-L1 ECD-His. The assay is described as follows: SPR, 25 C, antibody captured by anti-human IgG Fc, hPD-L1_ECD-His analyte, 1:1 fit. How it is done: Experiments were carried out at 25° C., and measurements were made with serial dilutions of hPD-L1_ECD-His from 55.4 nM to 11.1 nM passing over the captured antibodies in HBS-P+ buffer supplemented with 0.1% (w/v) BSA with a flow rate of […]. All data were analyzed with the evaluation software and curves were fit with a 1:1 Langmuir binding model. Data are representative of two independent experiments performed in duplicate.
B5 registered a dissociation constant Kd of 6.68 nM, a koff of 0.00267 s⁻¹ and a kon of 416000 M⁻¹ s⁻¹.
B6 had a Kd of 15.8 nM, a koff of 0.00453 s⁻¹ and an on-rate constant (kon) of 291000 M⁻¹ s⁻¹.
On to B7, for which the Kd was determined as 11.9 nM, the koff stood at 0.0041 s⁻¹ and the on-rate (kon) turned out to be 348000 M⁻¹ s⁻¹.
As to B9, the affinity, expressed as Kd, was 8.72 nM; the koff turned out to be 0.0039 s⁻¹; the kon came to 438000 M⁻¹ s⁻¹.

For the next assay, the target named is T1, human PD-L1 ECD-His. The assay is described as follows: SPR, hPD-L1-His, comparison of IgG isotypes of PL2#3.
Regarding B10, the Kd came to 1.56 nM, the koff was determined as 0.00193 s⁻¹ and the kon is 1.25e+06 M⁻¹ s⁻¹.
B11 returned a Kd of 0.239 nM, a koff of 0.000293 s⁻¹ and a kon of 1.26e+06 M⁻¹ s⁻¹.
The matching figures for B12: 0.25 nM, 0.000276 s⁻¹ and 1.14e+06 M⁻¹ s⁻¹.
Turning to B4, the Kd was found to be 0.118 nM, the koff worked out at 0.000162 s⁻¹ and the association rate constant (kon) was found to be 1.34e+06 M⁻¹ s⁻¹.
